From patent US20230027592A1

Molecular target: Bovine serum albumin (bovine) (UniProt P02769)

Row | Substance | BSA sequence coverage after digestion (nLC-MS/MS) (% BSA sequence coverage)
1 | Trypsin/LysC protease mix (Mass Spectrometry Grade, Promega V5072) (pool or library) | 91.3
2 | GluC protease (Mass Spectrometry Grade, Promega V1651) (from UniProt P0C1U8) (enzyme) | 93.1
